Data: patent publication US12428627B2, “Mutant p-hydroxyphenylpyruvate dioxygenase, and coding nucleic acid and use thereof” (Qingdao Kingagroot Chemical Compound Co., Ltd., priority 2018, dated 2025)
Residue numbers refer to the chain shown, from its start. Names and notes keep the numbering of the source.

B1: H141R/N338D/G342D/P386T: mutant rice HPPD (protein)
chain: MPPTPTPTATTGAVSAAAAAGENAGFRLVGHRRFVRANPRSDRFQALAFHHVELWCADAASAAGRFAFALGAPLAARSDLSTGNSAHASLLLRSASVAFLFTAPYGGDHGVGADAATTASIPSFSPGAARRFAADHGLAVRAVALRVADAADAFRASVAAGARPAFQPADLGGGFGLAEVELYGDVVLRFVSHPDGADAPFLPGFEGVSNPGAVDYGLRRFDHVVGNVPELAPVAAYISGFTGFHEFAEFTAEDVGTAESGLNSVVLANNAETVLLPLNEPVHGTKRRSQIQTYLDHHGGPGVQHIALASDDVLGTLREMRARSAMGGFEFLAPPPPDYYDDVRRRAGDVLSEEQINECQELGVLVDRDDQGVLLQIFTKPVGDRTTFFLEMIQRIGCMEKDESGQEYQKGGCGGFGKGNFSELFKSIEEYEKSLEAKQAPTVQGS
B2: H141R/N338D/G342D: mutant rice HPPD (protein)
chain: B1 chain with T386P
B3: H141R/N338D/G342D/K418P/G419F/N420S: mutant rice HPPD (protein)
chain: B1 chain with T386P, K418P, G419F, N420S
B4: G342D/R346C: mutant rice HPPD (protein, listed as Oryza sativa)
chain: B1 chain with R141H, D338N, R346C, T386P
modifications: The amino acid sequence of Wild-Type rice HPPD protein (OsHPPD _WT)
B5: H141R/N338D/N420S: mutant rice HPPD (protein)
chain: B1 chain with D342G, T386P, N420S
B6: H141R/G342D/G419F: mutant rice HPPD (protein)
chain: B1 chain with D338N, T386P, G419F
B7: N338D/G342D: mutant rice HPPD (protein)
chain: B1 chain with R141H, T386P
B8: N338D/G342D/R346C: mutant rice HPPD (protein, listed as Oryza sativa)
chain: B1 chain with R141H, R346C, T386P
modifications: The amino acid sequence of Wild-Type rice HPPD protein (OsHPPD _WT)
B9: H141R/G342D/K418P: mutant rice HPPD (protein)
chain: B1 chain with D338N, T386P, K418P
B10: H141R/N338D/G342D/R346H: mutant rice HPPD (protein)
chain: B1 chain with R346H, T386P
B11: H141R/N338D/G342D/R346C: mutant rice HPPD (protein)
chain: B1 chain with R346C, T386P
B12: 103: single-site mutant rice HPPD, A103S (protein)
chain: B1 chain with A57S, A103S, R141H, D338N, D342G, T386P
modifications: The amino acid sequence of rice HPPD mutant (OsHPPD_A103S)
notes: single-site mutant rice HPPD, A103S
B13: N338S/G342D/R346C (protein)
chain: B1 chain with R141H, D338S, R346C, T386P
B14: G342D: single-site mutant rice HPPD (protein, listed as Oryza sativa)
chain: B1 chain with R141H, D338N, T386P
modifications: The amino acid sequence of Wild-Type rice HPPD protein (OsHPPD _WT)

Each molecule was assayed on OsHPPD proteins (assay: Inhibitory activity (IC50) of the herbicide 101 and huanbifucaotong against OsHPPD proteins). Details: herbicides 101 and huanbifucaotong.
Assay type: biochemical, Oryza sativa
Protocol: (§1) • 1. The activity of a HPPD enzyme was determined by detecting the conversion of 4-hydroxyphenylpyruvate (4-HPP) to homogentisic acid (HGA) catalyzed by the HPPD enzyme and the conversion of HGA to maleylacetoacetate (MAA) catalyzed by homogentisate dioxygenase. […] 6 μl of 4-hydroxyphenylpyruvate (4-HPP) having a concentration that was as 50 times as the final concentration of the substrate were added to an ELSA plate, and then 294 μL of hydroxyethylpiperazine ethanesulfonic acid (HEPES) with a final concentration of 25 mM and pH of 7, 2 mM of Vitamin C, 10 mM FeSO4, 50 nM homogentisate dioxygenase and 5 to 240 nM HPPD enzyme were added thereto at one time. The final concentration of reaction substrate 4-HPP usually ranged from 1 to 100 μM. • 3. The absorbance changes of the reaction wells at 318 nm were continuously monitored by a UV ELISA detector (ReadMax 1900 photoabsorption type full-wavelength microplate reader) (Shanghai). • 4. Determination of Km, Kcat and Kcat/Km of OsHPPDs
• 5. Determination of inhibitory activity (IC50) of the herbicide 101 and huanbifucaotong against OsHPPD proteins
Due to the unique properties of each of 101 and huangbifucaotong, the degree of the increased IC50 value is not completely consistent for the two HPPD herbicides.
In the case of B1, the “resistance in in vitro enzyme activity experiments” value is reported as “relatively high resistance”.
For B2, the “resistance in in vitro enzyme activity experiments” value was “relatively high resistance”.

Each molecule was assayed on OsHPPD (assay: HPPD enzyme activity assay: Km, Kcat and Kcat/Km of OsHPPDs). Details: not given.
Assay type: biochemical, Oryza sativa
Protocol: The rice OsHPPD protein and homogentisate 1,2-dioxygenase (HGD) were obtained by heterologously expressed in E. coli wherein the gene was inserted into the pET 15b expression vector and expressed in the BL21 (DE3) expression strain, and purified by the Ni-NTA resin. • (1) The HPPD open reading frame (ORF) of the positive clone was cloned into the pET-15b vector to form a 6His-HPPD expression vector, and transformed into the BL21 (DE3) cell. The expression strain was inoculated in 10 mL of 2×YT culture medium, and cultivated overnight on a shaker at 37° C. and 200 rpm. The 10 mL of the culture was inoculated in 1 L of 2×YT culture medium and cultivated until the OD600 reached 0.6-0.8, cooled to a temperature of 16° C., and subjected to induced-expression with 0.2 mM IPTG (isopropyl thiogalactoside) overnight. The strains were collected by centrifugation at 2800×g. • (2) The collected strains were re-suspended with the buffer A (50 mM Tris pH 8.0, 500 mM NaCl, 20 mM imidazole), to which PMSF (phenylmethanesulfonyl fluoride) at the final concentration of 1 mM and 250 μL of a protease inhibitor cocktail (i.e., a mixture of multiple protease inhibitors), and mixed. The cells were broken by ultrasound in ice-bath (40% total power, work for 3 seconds/6 seconds interval, 2×30 minutes (Ningbo Scientz Biotechnology Co., Ltd., Ningbo, China)), and centrifuged at 12000 rpm at 4° C. for 30 minutes; and the supernatant was filtered with a 0.22 μm filter membrane. • (3) Purification with the Ni-NTA column: the supernatant was in contact with the Ni-NTA resin, then rinsed with a buffer A containing 50 mM imidazole to remove the impurities, and finally, eluted with an elution buffer containing 400 mM imidazole. • (4) The approximate purity of the protein of interest was analyzed by SDS-PAGE. The eluates containing of the protein of interest were combined and concentrated by an ultrafiltration device (10 kDa molecular weight cut-off, Amicon Ultra). The solution was replaced with a solution containing 20 mM Tris-HCl and having a pH of 7.5 for at least 3 times to desalt. The total protein concentration was determined by the BCA method.
as §1
Vmax is the maximum catalytic reaction rate achievable by enzymatic catalysis. The Michaelis constant Km is the concentration of a substrate required when the enzyme catalyzed the reaction to achieve half of the maximum rate (Vmax). The Km value is a constant and independent of the enzyme concentration, and altered as substrate type, reaction temperature, pH, and ionic strength changed. […] is a catalytic constant of an enzyme and referred to the number of substrate molecules that could be catalyzed by an enzyme molecule or enzyme active center per second. KCat/Km represents the catalytic efficiency of enzyme. It could be seen from the data in the table that the catalytic efficiency of most HPPD mutants was enhanced.
With B1 the “affinity to substrate (Km)” value was “not reduced”.
For B2, the “affinity to substrate (Km)” value was “not reduced”.

Same assay, conditions: substrate 4-HPP
With B3 the Km was 23 µM.
Work on B4 yielded a Km of 5.9 µM.
Molecule B5 has a Km of 5.1 µM.
B6 showed a Km of 7.9 µM.
B7 gave a Km of 2.1 µM.
B8 showed a Km of 9.5 µM.
Work on B9 yielded a Km of 30.6 µM.
Molecule B10 has a Km of 7.6 µM.
In the case of B11, the Km is reported as 7.4 µM.
B1 gave a Km of 9.7 µM.
B2 showed a Km of 6.3 µM.

These molecules were tested on rice HPPD (OsHPPD) (assay: Color reaction of recombinant E. coli expressing wild-type or mutant rice HPPD, cultured in 96-well plate in medium containing an HPPD-inhibiting herbicide and tyrosine). Details: Table 1, single-site mutants; estimated from color change, wild type = +.
Assay type: cell-based, Oryza sativa
Parameters: key to relative resistance to Tembotrione / relative resistance to Benzuofucaotong metabolic product / relative resistance to Huanbifucaotong / relative resistance to Topramezone / relative resistance to Mesotrione / resistance to Tembotrione / resistance to Benzucfucaotong metabolic product / resistance to Huanbifucaotong / resistance to Topramezone / resistance to Mesotrione: The more the plus sign “+”, the deeper the color and the higher the resistance/tolerance as compared to the wild type
From the text: The rice full-length OsHPPD enzyme has 446 amino acids and its amino acid sequence is set forth in SEQ ID NO: 2, wherein the amino acids 1-50 are considered to constitute a signal peptide which is responsible for directing into chloroplast (Siehl et al. Plant Physiol. 2014 November; 166(3): 1162-1176). Therefore, from the amino acid at the 51-position to the amino acid at the […], a saturated random mutation was made for each amino acid. This was achieved by performing a bridge PCR by using a primer containing a coding sequence of an amino acid to be mutated into NNK and another suitable conventional primer. In NNK, N represented A/T/G/C and K represented G/T, and the NNK codon could encode any one of 20 amino acids or terminators. Accordingly, this was a saturated mutation. Please see: Kille S. Acevedo-Rocha C G, Parra L P, Zhang Z G, Opperman D J, Reetz M T, Acevedo J P (2013) Reducing codon redundancy and screening effort of combinatorial protein libraries created by saturation mutagenesis. ACS Synth Biol 2(2):83-92; Directed Evolution Library Creation: methods and protocols 2nd ed. Edited by Elizabeth M. J. Gillam, Janine N. Copp and David F. Ackerley New York, NY United States: Springer, 2014. doi:10.1007/978-1-4939-1053-3. A large number of mutants would be produced. The mutant was cloned into a linearized pET-44a vector and transformed into E. co/i, which was cultivated by using a 96-well plate in a 2×YT culture solution containing an HPPD-inhibiting herbicide (such as 1-2 μM tembotrione) and a substrate tyrosine (1 g/L) in a shaker at 28° C. and 150 rpm for 24 hours for expression, and then the mutants were rapidly screened out according to their color browning. By using the method, 10 single amino acid mutants, A103S, H141R, H141 K, H141T, A165V, V191I, R220K, G342D, D370N and K410I, were screened out. The color reaction of these resistant mutants in the presence of tembotrione and the metabolic product of benzuofucaotong relative to that of the wild type was as shown in FIG. 1.
Similarly, the color reaction of these mutants in the presence of the other three HPPD-inhibiting herbicides huanbifucaotong, topramezone and mesotrione were determined, see FIGS. 2 and 3. The resistance/tolerance of each of the mutants to the five herbicides was roughly estimated on the basis of color changes thereof and the results were shown in Table 1. The more the plus sign “+”, the deeper the color and the higher the resistance/tolerance as compared to the wild type.
HPPD-inhibiting herbicides inhibited HPPD enzymatic activity. When tyrosine was converted to 4-hydroxyphenylpyruvate (HPP) under the action of tyrosine transaminase, the inactivated HPPD was unable to oxidize 4-hydroxyphenylpyruvate into homogentisic acid (HGA). HGA was dark brown. Therefore, if an HPPD mutant was resistant to or tolerant to an herbicide, after expressed in E. coli, the mutant could also oxidize 4-hydroxyphenylpyruvate into homogentisic acid, whereby dark brown appeared. Therefore, E. coli was cultured in a 2×YT culture medium containing a HPPD-inhibiting herbicide and a substrate tyrosine using a 96-well plate to express HPPD, and these mutants were rapidly screened according to their color changes. • (1) Preparation of 2×YT culture medium (1 g/L L-Tyr, 0.1 mM IPTG, 0.01 mM MnCl2 and 100 mg/L ampicillin were added). • (2) 0.1 mL of the above medium was added to each well of a 96-well plate, and the expression clones of OsHPPD wild type or mutant (OsHPPD Mut) from the E. coli plate obtained by the above transformation were subjected to liquid culture in the 96-well plate. HPPD inhibitors having a final concentration of 1 μM-20 μM were added according to different selected agents, for example, the final concentration of tembotrione was 1.7 μM while mesotrione was 10 μM. […]
In the case of B12, the “relative resistance to Huanbifucaotong” value is reported as “+”.

Same assay, conditions: compound 101
In the case of B13, the “resistance ranking in color reaction” value is reported as “highest resistance”.
B8 was tested, and the “resistance ranking in color reaction” value was “highest resistance”.

Same assay, conditions: tembotrione and metabolic product of benzuofucaotong, FIG. 1
For B14, the “color change compared with wild type” value was “obviously deeper than that of the wild type”.
